Reference: patent US6358687, “Methods for monitoring the binding of A1/UP1 to single-stranded nucleic acid sequences, and to measure the effect of this binding on telomere extension and protection” (Telogene Inc.)

Assays:
[1] = target: T1, GST-UP1 (hnRNP A1 fragment) (UniProt P49312 P49312:1-196); assay: EMSA; 0.25-1.0 uM protein; conditions: tags: GST; label: 5'-32P
Experimental: (§1) Gel-shift assays were performed using single-stranded or partially double-stranded duplex substrates. A, the concentrations of GST-UP1 (G-UP1) used for each set of DNA substrate were 0.25, 0.5, 1.0 and 0 µM. Duplex formation was accomplished by incubating an equimolar amount of unlabeled Tb with labeled b' (or unlabeled aT with labeled a'). The partial duplex substrates migrate slightly above the position of labeled Tb and aT. […] B, gel shift assays were accomplished in the presence of an excess of cold oligonucleotides as competitor. Labeled Tb or aT (0.1 µM) was used in combination with cold Tb or aT (0, 0.625, 1.25, 2.5 and 5.0 µM) and G-UP1 (0.3 µM). (Open bar) vertebrate telomeric repeats; (solid bar) nontelomeric DNA. The asterisk (*) indicates which oligonucleotide was ^32P-labeled at its 5' end. Complexes were fractionated on 5% non-denaturating polyacrylamide gels. The position of the free and complexed oligonucleotides is shown.

[2] = target: T1, GST-UP1 (hnRNP A1 fragment); assay: EMSA; legend titled binding to single-stranded telomeric extensions in partial duplex; conditions: tags: GST
Experimental: as §1

[3] = target: T2, UP1 (hnRNP A1 fragment) (UniProt P49312 P49312:1-196); assay: EMSA; not shown; conditions: tags: GST removed by thrombin
[4] = target: T2, UP1 (hnRNP A1 fragment); assay: EMSA; 1-4 uM protein, 0.5 uM TS10; conditions: tags: GST removed by thrombin; label: 5'-32P
Experimental: (§2) GST-UP1 (G-UP1) at concentrations of 0, 0.2, 0.5, 1.0, 2.0 and 4.0 µM, or UP1 at concentrations of 0, 1.0, 2.0 and 4.0 µM, were incubated with TS10 (0.5 µM). Complexes were fractionated on 5% non-denaturating polyacrylamide gels. The position of complexes and free TS10 is shown.

[5] = target: T1, GST-UP1 (hnRNP A1 fragment); assay: EMSA; 0.2-4.0 uM protein, 0.5 uM TS10; 2.5 mM MgCl2, 75 mM KCl, 30 C; conditions: tags: GST; label: 5'-32P
Experimental: as §2

[6] = target: T1, GST-UP1 (hnRNP A1 fragment); assay: EMSA; not shown; conditions: tags: GST; label: 5'-32P
Experimental: as §1

T2 sequence (P49312 1-196, one chain of several): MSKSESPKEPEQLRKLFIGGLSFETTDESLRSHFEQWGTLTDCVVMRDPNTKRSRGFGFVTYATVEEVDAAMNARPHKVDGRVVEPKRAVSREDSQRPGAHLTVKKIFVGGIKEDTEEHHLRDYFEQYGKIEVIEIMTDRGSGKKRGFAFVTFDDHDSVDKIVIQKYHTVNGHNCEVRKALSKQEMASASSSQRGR
T1 sequence (P49312 1-196, one chain of several): as above

Question: Does TAGGGTTAGGGTTAGGGTGGTCCTGTGATCCGG (ssDNA) [Tb] bind [1]?
Answer: binds

B1: Tb/b' partial duplex (mixed)
DNA 1: TAGGGTTAGGGTTAGGGTGGTCCTGTGATCCGG
DNA 2: CCGGATCACAGGACC
Question: Does B1 bind ([2]; label: 5'-32P on b', 5' single-stranded telomeric overhang)?
Answer: binds

Question: Does GGTTAGGGTTAGGGTTAG (ssDNA) [Tel2] bind [3]?
Answer: binds

B2: TS10 (ssDNA)
DNA: TTAGGGTTAGGGTTAGGGTTAGGGTTAGGGTTAGGGTTAGGGTTAGGGTTAGGGTTAGGG
Question: What does the source list for B2?
Answer: binding result [4]: binds; binding result [5]: binds

Question: Does CCGGATCACAGGACC (ssDNA) [b'] bind [6]?
Answer: no binding

Question: Does CCAGGACACTAGGCC (ssDNA) [a'] bind [6]?
Answer: no binding

Question: Does GGCCTAGTGTCCTGGTAGGGTTAGGGTTAGGGT (ssDNA) [aT] bind [1]?
Answer: binds

B3: aT/a' partial duplex (mixed)
DNA 1: GGCCTAGTGTCCTGGTAGGGTTAGGGTTAGGGT
DNA 2: CCAGGACACTAGGCC
Question: Does B3 bind ([2]; label: 5'-32P on a', 3' single-stranded telomeric overhang)?
Answer: binds

Question: Does GGGGGTGGGAGCAGGGGAGG (ssDNA) [Ne4] bind [3]?
Answer: no binding
